Consider six substances from patent US12338483.

In data set [1] the test system is T1, GzmB/Thrb AND-gate protease activity sensor.
T1 sequence: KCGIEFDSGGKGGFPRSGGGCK

Data set [2] relates to GzmB/MMP AND-gate protease activity sensor.
Data set [3] relates to Thrb substrate (individual protease substrate labeled with a fluorescent quencher and dye, nanoparticle-conjugated).
Data set [4] relates to GzmB substrate (individual protease substrate labeled with a fluorescent quencher and dye, nanoparticle-conjugated).
For data set [5], the system named is MMP substrate of the biocomparator peptide cage (Example 4).
Data set [6] relates to MMP substrate (Example 3).

MMP1, sequence (P03956 100-469): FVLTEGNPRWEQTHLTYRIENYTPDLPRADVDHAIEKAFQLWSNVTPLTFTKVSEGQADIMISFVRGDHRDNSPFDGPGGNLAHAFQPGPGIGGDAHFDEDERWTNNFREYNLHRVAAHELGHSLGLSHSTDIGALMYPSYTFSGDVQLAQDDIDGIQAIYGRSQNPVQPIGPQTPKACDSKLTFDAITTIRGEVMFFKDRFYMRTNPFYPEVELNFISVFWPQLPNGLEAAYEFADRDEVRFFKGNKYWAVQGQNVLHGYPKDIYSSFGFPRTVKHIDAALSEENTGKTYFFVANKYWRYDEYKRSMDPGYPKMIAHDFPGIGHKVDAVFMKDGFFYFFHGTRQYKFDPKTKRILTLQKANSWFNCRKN

As to granzyme B (GzmB), the “change in fluorescence in a cleavage assay (AND-gate sensor)” value in data set [1] was “The reporter molecule emits a high fluorescent signal when both proteases are present together but not when either protease is present alone”. Further, the fluorescent signal in a cleavage assay (AND-gate sensor with each MMP, with and without GzmB) in data set [2] is > 2 fold. Moreover, the “change in fluorescence in a cleavage assay (quenched substrate)” value in data set [3] is reported as “the Thrb substrate was cleaved only by Thrb”; in data set [4], “the GzmB substrate was cleaved effectively by GzmB alone”.

Regarding MMP9, the fluorescent cleavage assay result in data set [5] is on record as “Results also confirmed MMP9 can cleave the MMP substrate by cleavage assay”.

As to thrombin (Thrb), in data set [1], the “change in fluorescence in a cleavage assay (AND-gate sensor)” value is recorded as “The reporter molecule emits a high fluorescent signal when both proteases are present together but not when either protease is present alone”. For the same substance, the “change in fluorescence in a cleavage assay (quenched substrate)” value in data set [3] is “the Thrb substrate was cleaved only by Thrb”; in data set [4] it was “the GzmB substrate was cleaved effectively by GzmB alone”.

For MMP1, in data set [6], the “change in fluorescence in a cleavage assay (kinetic trace)” value (shortened to “change in fluorescence … (kinetic trace)”) was “The substrate was cleaved with high activity by MMP1, MMP8, and MMP13”.

Turning to MMP8, the “change in fluorescence … (kinetic trace)” value in data set [6] is “The substrate was cleaved with high activity by MMP1, MMP8, and MMP13”. Besides, in data set [2], the “fluorescent signal in a cleavage assay (AND-gate sensor with GzmB and a second protease)” value was “The sensor produced low signals with the viral proteases compared to MMP8”.

Turning to MMP13, in data set [6], the “change in fluorescence … (kinetic trace)” value is “The substrate was cleaved with high activity by MMP1, MMP8, and MMP13”.
